Results as given in patent US20220010021A1 (Sanofi, published 2022).

T1: human beta-Klotho (KLB) (human, UniProt Q86Z14 53-997)
T1 construct: the BLI off-rate screen was run with human and with monkey KLB; also called human KLB; ß-Klotho
T1 sequence (looked up): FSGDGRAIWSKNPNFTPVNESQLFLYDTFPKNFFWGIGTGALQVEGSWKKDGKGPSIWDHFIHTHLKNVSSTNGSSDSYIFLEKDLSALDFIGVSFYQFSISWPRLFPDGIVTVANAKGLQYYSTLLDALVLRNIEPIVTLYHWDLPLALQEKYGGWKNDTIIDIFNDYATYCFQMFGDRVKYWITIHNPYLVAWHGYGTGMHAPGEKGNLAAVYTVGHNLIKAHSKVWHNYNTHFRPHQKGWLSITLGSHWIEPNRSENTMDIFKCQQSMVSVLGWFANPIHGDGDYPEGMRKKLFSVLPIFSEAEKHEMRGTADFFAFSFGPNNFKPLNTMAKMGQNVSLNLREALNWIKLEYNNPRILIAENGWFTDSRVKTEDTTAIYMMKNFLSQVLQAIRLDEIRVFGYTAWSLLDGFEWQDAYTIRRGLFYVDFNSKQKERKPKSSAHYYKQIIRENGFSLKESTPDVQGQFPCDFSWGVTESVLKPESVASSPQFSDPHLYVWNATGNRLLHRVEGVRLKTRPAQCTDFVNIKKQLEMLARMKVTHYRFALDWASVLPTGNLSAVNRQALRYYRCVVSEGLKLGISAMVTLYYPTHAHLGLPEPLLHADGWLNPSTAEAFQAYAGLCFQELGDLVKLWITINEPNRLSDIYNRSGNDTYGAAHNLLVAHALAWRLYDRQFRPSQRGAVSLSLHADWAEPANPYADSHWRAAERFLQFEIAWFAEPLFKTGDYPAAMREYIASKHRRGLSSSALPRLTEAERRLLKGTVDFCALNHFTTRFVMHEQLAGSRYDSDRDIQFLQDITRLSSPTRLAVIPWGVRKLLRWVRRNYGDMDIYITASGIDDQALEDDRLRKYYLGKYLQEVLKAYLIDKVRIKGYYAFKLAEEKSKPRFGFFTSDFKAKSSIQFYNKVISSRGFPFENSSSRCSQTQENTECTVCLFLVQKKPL


Assays:
[1] = target: cell-surface receptor complex of human FGFR1c and beta-Klotho (KLB) on iLite FGF21 reporter cells (human, UniProt P11362 22-822; Q86Z14 1-1044); assay: cell-based or functional assay
human beta-Klotho (KLB) = target: T1, human beta-Klotho (KLB); assay: BLI off-rate screening (Octet HTX), antibody from supernatant on anti-hIgG Fc capture sensors, KLB 5 nmol/L as analyte
[2] = target: human FGFR1c/KLB receptor complex on primary human adipocytes (human, UniProt P11362 22-822; Q86Z14 1-1044); assay: cell-based or functional assay
Sequence of human FGFR1c/KLB receptor complex on primary human adipocytes (P11362 22-822, chain 1 of 2): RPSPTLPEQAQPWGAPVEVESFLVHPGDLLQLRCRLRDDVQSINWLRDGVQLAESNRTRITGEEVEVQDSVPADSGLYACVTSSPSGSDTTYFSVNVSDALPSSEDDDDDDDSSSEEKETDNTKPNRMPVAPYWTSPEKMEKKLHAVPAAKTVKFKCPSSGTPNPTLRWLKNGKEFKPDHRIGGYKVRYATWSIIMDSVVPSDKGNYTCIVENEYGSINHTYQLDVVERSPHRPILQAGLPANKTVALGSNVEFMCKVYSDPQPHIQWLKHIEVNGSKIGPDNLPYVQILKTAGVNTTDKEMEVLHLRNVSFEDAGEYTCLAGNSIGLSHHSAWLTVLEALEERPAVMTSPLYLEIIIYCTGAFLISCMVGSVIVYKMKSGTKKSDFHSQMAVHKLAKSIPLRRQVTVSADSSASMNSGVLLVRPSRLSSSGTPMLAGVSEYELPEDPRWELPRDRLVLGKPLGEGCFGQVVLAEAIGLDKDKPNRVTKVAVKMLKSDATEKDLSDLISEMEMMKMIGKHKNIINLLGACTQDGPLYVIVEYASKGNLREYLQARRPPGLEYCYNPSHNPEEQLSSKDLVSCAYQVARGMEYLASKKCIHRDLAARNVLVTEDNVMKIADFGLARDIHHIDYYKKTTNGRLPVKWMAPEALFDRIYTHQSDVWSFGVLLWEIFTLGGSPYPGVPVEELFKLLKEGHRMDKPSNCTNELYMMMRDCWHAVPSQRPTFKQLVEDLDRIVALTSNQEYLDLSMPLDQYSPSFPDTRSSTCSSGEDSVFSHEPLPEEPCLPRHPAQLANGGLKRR
Sequence of human FGFR1c/KLB receptor complex on primary human adipocytes (Q86Z14 whole entry, chain 2 of 2): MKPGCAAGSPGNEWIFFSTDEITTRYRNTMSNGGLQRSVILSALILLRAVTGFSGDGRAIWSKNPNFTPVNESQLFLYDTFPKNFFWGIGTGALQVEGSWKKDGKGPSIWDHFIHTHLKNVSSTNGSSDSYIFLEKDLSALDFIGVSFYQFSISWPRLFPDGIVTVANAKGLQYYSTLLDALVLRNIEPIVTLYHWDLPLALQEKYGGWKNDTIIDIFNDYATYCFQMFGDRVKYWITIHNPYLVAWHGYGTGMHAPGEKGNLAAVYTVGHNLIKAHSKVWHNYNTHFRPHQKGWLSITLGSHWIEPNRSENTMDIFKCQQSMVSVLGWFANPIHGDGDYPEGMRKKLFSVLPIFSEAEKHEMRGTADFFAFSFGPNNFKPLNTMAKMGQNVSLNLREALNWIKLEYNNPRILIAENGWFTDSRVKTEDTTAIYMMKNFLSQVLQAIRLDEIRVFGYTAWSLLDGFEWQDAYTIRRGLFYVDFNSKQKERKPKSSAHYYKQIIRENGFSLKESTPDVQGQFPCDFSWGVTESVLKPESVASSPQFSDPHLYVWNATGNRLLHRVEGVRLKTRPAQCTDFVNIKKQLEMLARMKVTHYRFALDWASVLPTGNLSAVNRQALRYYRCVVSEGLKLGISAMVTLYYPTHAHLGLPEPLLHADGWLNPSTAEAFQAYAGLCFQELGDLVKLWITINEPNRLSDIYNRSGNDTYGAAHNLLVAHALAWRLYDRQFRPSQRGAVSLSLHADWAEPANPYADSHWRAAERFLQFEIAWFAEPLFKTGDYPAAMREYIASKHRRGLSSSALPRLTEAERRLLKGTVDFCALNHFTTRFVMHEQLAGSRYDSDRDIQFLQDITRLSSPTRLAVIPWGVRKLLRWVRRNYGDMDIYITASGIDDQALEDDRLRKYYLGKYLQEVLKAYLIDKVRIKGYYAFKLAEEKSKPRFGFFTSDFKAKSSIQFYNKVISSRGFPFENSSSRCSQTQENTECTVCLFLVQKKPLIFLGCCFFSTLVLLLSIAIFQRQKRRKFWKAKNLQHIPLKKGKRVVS

| Binder | Mean E max (%), Luciferase gene reporter assay [1] | Mean EC50 (nM), Luciferase gene reporter assay [1] | koff (human beta-Klotho (KLB)) | In-Cell Western pERK EC50, primary human adipocytes [2] |
| --- | --- | --- | --- | --- |
| Ab0331 (antibody, human IgG4 S228P, lambda) heavy: not shown light: SYVLTQPPSVSVAPGQTARITCGGSNIGSESVHWYQQKPGQAPVLVVYSESDRPSGIPERFSGSNSGNTATLTISRVEAGDEADYYCQVWEGESDHVVFGGGTKLTVLGQPKANPTVTLFPPSSEELQANKATLVCLISDFYPGAVTVAWKADGSPVKAGVETTKPSKQSNNKYAASSYLSLTPEQWKSHRSYSCQVTHEGSTVEKTVAPTECS |  |  |  | 0.101 nmol/L |
| Ab0428 (antibody, human IgG1, lambda) heavy: not shown light: SYVLTQPPSVSVAPGQTARITCGGSNIGSESVHWYQQKPGQAPVLVVYSESDRPSGIPERFSGSNSGNTATLTISRVEAGDEADYYCQVWEGESDHVVFGGGTKLTVLGQPKANPTVTLFPPSSEELQANKATLVCLISDFYPGAVTVAWKADGSPVKAGVETTKPSKQSNNKYAASSYLSLTPEQWKSHRSYSCQVTHEGSTVEKTVAPTECS |  |  |  | 0.072 nmol/L |
| Ab0429 (antibody, human IgG1, lambda) heavy: not shown light: SYVLTQPPSVSVAPGQTARITCGGSNIGSESVHWYQQKPGQAPVLVVYSASDRPSGIPERFSGSNSGNTATLTISRVEAGDEADYYCQVWEGESDHVVFGGGTKLTVLGQPKANPTVTLFPPSSEELQANKATLVCLISDFYPGAVTVAWKADGSPVKAGVETTKPSKQSNNKYAASSYLSLTPEQWKSHRSYSCQVTHEGSTVEKTVAPTECS |  |  |  | 0.078 nmol/L |
| Ab0351 (antibody, human IgG4 S228P, lambda) heavy: not shown light: SYVLTQPPSVSVAPGQTARITCGGSNIGSESVHWYQQKPGQAPVLVVYEESDRPSGIPERFSGSNSGNTATLTISRVEAGDEADYYCQVWEGESDHVVFGGGTKLTVLGQPKANPTVTLFPPSSEELQANKATLVCLISDFYPGAVTVAWKADGSPVKAGVETTKPSKQSNNKYAASSYLSLTPEQWKSHRSYSCQVTHEGSTVEKTVAPTECS |  |  |  | 0.156 nmol/L |
| Ab0335 (antibody, human IgG4 S228P, lambda) heavy: not shown light: SYVLTQPPSVSVAPGQTARITCGGSNIGSESVHWYQQKPGQAPVLVVYSASDRPSGIPERFSGSNSGNTATLTISRVEAGDEADYYCQVWEGESDHVVFGGGTKLTVLGQPKANPTVTLFPPSSEELQANKATLVCLISDFYPGAVTVAWKADGSPVKAGVETTKPSKQSNNKYAASSYLSLTPEQWKSHRSYSCQVTHEGSTVEKTVAPTECS |  |  |  | 0.142 nmol/L |

Next, values leading:

| Mean E max (%), Luciferase gene reporter assay [1] | Mean EC50 (nM), Luciferase gene reporter assay [1] | koff (human beta-Klotho (KLB)) | In-Cell Western pERK EC50, primary human adipocytes [2] | Binder |
| --- | --- | --- | --- | --- |
| 106% | 0.111 nM | 9e-05 s⁻¹ |  | 16H7 variant with single point mutation V98K in the light chain (antibody, V domains shown, Tested from HEK293-F supernatant) VH: not shown VL: SYVLTQPPSVSVAPGQTARITCGGNNIGSESVHWYQQKPGQAPVLVVYDDSDRPSGIPERFSGSNSGNTATLTISRVEAGDEADYYCQVWDGNSDHVKFGGGTKLTVLG |
| 99% | 0.088 nM | 3.1e-05 s⁻¹ |  | 16H7 variant with single point mutation V98T in the light chain (antibody, V domains shown, Tested from HEK293-F supernatant) VH: not shown VL: SYVLTQPPSVSVAPGQTARITCGGNNIGSESVHWYQQKPGQAPVLVVYDDSDRPSGIPERFSGSNSGNTATLTISRVEAGDEADYYCQVWDGNSDHVTFGGGTKLTVLG |
| 111% | 0.121 nM | 3.7e-05 s⁻¹ |  | 16H7 variant with single point mutation V98Q in the light chain (antibody, V domains shown, Tested from HEK293-F supernatant) VH: not shown VL: SYVLTQPPSVSVAPGQTARITCGGNNIGSESVHWYQQKPGQAPVLVVYDDSDRPSGIPERFSGSNSGNTATLTISRVEAGDEADYYCQVWDGNSDHVQFGGGTKLTVLG |
| 99% | 0.099 nM | 0.00011 s⁻¹ |  | 16H7 variant with single point mutation V98R in the light chain (antibody, V domains shown, Tested from HEK293-F supernatant) VH: not shown VL: SYVLTQPPSVSVAPGQTARITCGGNNIGSESVHWYQQKPGQAPVLVVYDDSDRPSGIPERFSGSNSGNTATLTISRVEAGDEADYYCQVWDGNSDHVRFGGGTKLTVLG |
|  |  |  | 0.206 nmol/L | human FGF21 (ligand) GHPIPDSSPLLQFGGQVRQRYLYTDDAQQTEAHLEIREDGTVGGAADQSPESLLQLKALKPGVIQILGVKTSRFLCQRPDGALYGSLHFDPEACSFRELLLEDGYNVYQSEAHGLPLHLPGNKSPHRDPAPRGPARFLPLPGLPPAPPEPPGILAPQPPDVGSSDPLSMVGPSQGRSPSYAS |
|  |  |  | 0.116 nmol/L | Ab0430 (antibody, human IgG1, lambda) heavy: not shown light: SYVLTQPPSVSVAPGQTARITCGGSNIGSESVHWYQQKPGQAPVLVVYEESDRPSGIPERFSGSNSGNTATLTISRVEAGDEADYYCQVWEGESDHVVFGGGTKLTVLGQPKANPTVTLFPPSSEELQANKATLVCLISDFYPGAVTVAWKADGSPVKAGVETTKPSKQSNNKYAASSYLSLTPEQWKSHRSYSCQVTHEGSTVEKTVAPTECS |
